Key:
Type in all cases: biochemical
[1] = ω-transaminase enzyme activity assay, forward direction (glutarate semialdehyde to 5-aminopentanoate), cell free extract
Protocol: A nucleotide sequence encoding an N-terminal His-tag was added to the genes from Chromobacterium violaceum and Rhodobacter sphaeroides encoding the ω-transaminases of SEQ ID NOs: 8 and 10 respectively (see FIG. 10) such that N-terminal HIS tagged ω-transaminases could be produced. Each of the resulting modified genes was cloned into a pET21a expression vector under control of the T7 promoter and each expression vector was transformed into a BL21[DE3] E. coli host. The resulting recombinant E. coli strains were cultivated at 37° C. in a 250 mL shake flask culture containing 50 mL LB media and antibiotic selection pressure, with shaking at 230 rpm. Each culture was induced overnight at 16° C. using 1 mM IPTG.
(§1) The pellet from each induced shake flask culture was harvested via centrifugation. Each pellet was resuspended and lysed via sonication. The cell debris was separated from the supernatant via centrifugation and the cell free extract was used immediately in enzyme activity assays.
Enzyme activity in the forward direction (i.e., glutarate semialdehyde to 5-aminopentanoate) was confirmed for the transaminase of SEQ ID NO: 10. Enzyme activity assays were performed in a buffer composed of a final concentration of 50 mM HEPES buffer (pH=7.5), 10 mM glutarate semialdehyde, 10 mM L-alanine and 100 μM pyridoxyl 5′ phosphate. Each enzyme activity assay reaction was initiated by adding a cell free extract of the ω-transaminase gene product or the empty vector control to the assay buffer containing the glutarate semialdehyde and incubated at 25° C. for 4 hours, with shaking at 250 rpm. The formation of pyruvate was quantified via RP-HPLC.

[2] = carboxylate reductase enzyme activity assay (5-hydroxypentanoate to 5-hydroxypentanal), NADPH consumption at 340 nm; conditions: purified enzyme enhanced by the gene product of sfp; 1 mM ATP, 1 mM NADPH, pH 7.5, room temperature, 20 minutes; against the empty vector control; FIG. 14
Protocol: A nucleotide sequence encoding a His-tag was added to the genes from Mycobacterium marinum, Mycobacterium smegmatis, Segniliparus rugosus, Mycobacterium massiliense, and Segniliparus rotundus that encode the carboxylate reductases of SEQ ID NOs: 2-4, 6 and 7, respectively (GenBank Accession Nos. ACC40567.1, ABK71854.1, EFV11917.1, EIV11143.1, and ADG98140.1, respectively) (see FIG. 10) such that N-terminal HIS tagged carboxylate reductases could be produced. Each of the modified genes was cloned into a pET Duet expression vector alongside a sfp gene encoding a His-tagged phosphopantetheine transferase from Bacillus subtilis, both under control of the T7 promoter. Each expression vector was transformed into a BL21[DE3] E. coli host along with the expression vectors from Example 3. Each resulting recombinant E. coli strain was cultivated at 37° C. in a 250 mL shake flask culture containing 50 mL LB media and antibiotic selection pressure, with shaking at 230 rpm. Each culture was induced overnight at 37° C. using an auto-induction media. […]
Enzyme activity (i.e., 5-hydroxypentanoate to 5-hydroxypentanal) assays were performed in triplicate in a buffer composed of a final concentration of 50 mM HEPES buffer (pH=7.5), 2 mM 5-hydroxypentanal, 10 mM MgCl2, 1 mM ATP, and 1 mM NADPH. […] The consumption of NADPH was monitored by absorbance at 340 nm. […]

[3] = ω-transaminase enzyme activity assay (cadaverine to 5-aminopentanal), cell free extract
Protocol: A nucleotide sequence encoding an N-terminal His-tag was added to the Chromobacterium violaceum, Pseudomonas aeruginosa, Pseudomonas syringae, and Escherichia coli genes encoding the ω-transaminases of SEQ ID NOs: 8 to 10 and 12, respectively (see, FIG. 10) such that N-terminal HIS tagged ω-transaminases could be produced. The modified genes were cloned into a pET21a expression vector under the T7 promoter. Each expression vector was transformed into a BL21[DE3] E. coli host. Each resulting recombinant E. coli strain were cultivated at 37° C. in a 250 mL shake flask culture containing 50 mL LB media and antibiotic selection pressure, with shaking at 230 rpm. Each culture was induced overnight at 16° C. using 1 mM IPTG.
as §1
Enzyme activity assays in the reverse direction (i.e., cadaverine to 5-aminopentanal) were performed in a buffer composed of a final concentration of 50 mM HEPES buffer (pH=7.5), 10 mM cadaverine, 10 mM pyruvate, and 100 μM pyridoxyl 5′ phosphate. […] The formation of L-alanine was quantified via RP-HPLC.

B1: SEQ ID NO: 10: Pseudomonas syringae ω-transaminase (b222 says Rhodobacter sphaeroides), N-terminal HIS tagged, cell free extract (protein, listed as Pseudomonas syringae)
chain: MSANNPQTLEWQALSSEHHLAPFSDYKQLKEKGPRIITRAEGVYLWDSEGNKILDGMSGLWCVAIGYGREELADAASKQMRELPYYNLFFQTAHPPVLELAKAISDIAPEGMNHVFFTGSGSEGNDTMLRMVRHYWALKGQPNKKTIISRVNGYHGSTVAGASLGGMTYMHEQGDLPIPGVVHIPQPYWFGEGGDMTPDEFGIWAAEQLEKKILELGVENVGAFIAEPIQGAGGVIVPPDSYWPKIKEILSRYDILFAADEVICGFGRTSEWFGSDFYGLRPDMMTIAKGLTSGYVPMGGLIVRDEIVAVLNEGGDFNHGFTYSGHPVAAAVALENIRILREEKIVERVRSETAPYLQKRLRELSDHPLVGEVRGVGLLGAIELVKDKTTRERYTDKGAGMICRTFCFDNGLIMRAVGDTMIIAPPLVISFAQIDELVEKARTCLDLTLAVLQG
modifications: N-terminal His tag
In the case of B1, the “acceptance of glutarate semialdehyde as substrate (formation of pyruvate from L-alanine, RP-HPLC)” value ([1]; 10 mM glutarate semialdehyde, 10 mM L-alanine, pH 7.5, 25° C., 4 hours, against the empty vector control, FIG. 16) is reported as “accepted glutarate semialdehyde as substrate” and the “acceptance of glutarate semialdehyde as substrate and synthesis of 5-aminopentanoate, concluded from reversibility of the ω-transaminase activity” value ([1]; conclusion from reverse and forward direction assays) is reported as “accepted glutarate semialdehyde as substrate and synthesized 5-aminopentanoate”.

B2: SEQ ID NO: 6: Mycobacterium massiliense carboxylate reductase, N-terminal HIS tagged (protein)
chain: MTNETNPQQEQLSRRIESLRESDPQFRAAQPDPAVAEQVLRPGLHLSEAIAALMTGYAERPALGERARELVIDQDGRTTLRLLPRFDTTTYGELWSRTTSVAAAWHHDATHPVKAGDLVATLGFTSIDYTVLDLAIMILGGVAVPLQTSAPASQWTTILAEAEPNTLAVSIELIGAAMESVRATPSIKQVVVFDYTPEVDDQREAFEAASTQLAGTGIALETLDAVIARGAALPAAPLYAPSAGDDPLALLIYTSGSTGAPKGAMHSENIVRRWWIREDVMAGTENLPMIGLNFMPMSHIMGRGTLTSTLSTGGTGYFAASSDMSTLFEDMELIRPTALALVPRVCDMVFQRFQTEVDRRLASGDTASAEAVAAEVKADIRDNLFGGRVSAVMVGSAPLSEELGEFIESCFELNLTDGYGSTEAGMVFRDGIVQRPPVIDYKLVDVPELGYFSTDKPHPRGELLLKTDGMFLGYYKRPEVTASVFDADGFYMTGDIVAELAHDNIEIIDRRNNVLKLSQGEFVAVATLEAEYANSPVVHQIYVYGSSERSYLLAVVVPTPEAVAAAKGDAAALKTTIADSLQDIAKEIQLQSYEVPRDFIIEPQPFTQGNGLLTGIAKLARPNLKAHYGPRLEQMYAEIAEQQAAELRALHGVDPDKPALETVLKAAQALLGVSSAELAADAHFTDLGGDSLSALSFSDLLRDIFAVEVPVGVIVSAANDLGGVAKFVDEQRHSGGTRPTAETVHGAGHTEIRAADLTLDKFIDEATLHAAPSLPKAAGIPHTVLLTGSNGYLGHYLALEWLERLDKTDGKLIVIVRGKNAEAAYGRLEEAFDTGDTELLAHFRSLADKHLEVLAGDIGDPNLGLDADTWQRLADTVDVIVHPAALVNHVLPYNQLFGPNVVGTAEIIKLAITTKIKPVTYLSTVAVAAYVDPTTFDEESDIRLISAVRPIDDGYANGYGNAKWAGEVLLREAHDLCGLPVAVFRSDMILAHSRYTGQLNVPDQFTRLILSLIATGIAPGSFYQAQTTGERPLAHYDGLPGDFTAEAITTLGTQVPEGSEGFVTYDCVNPHADGISLDNFVDWLIEAGYPIARIDNYTEWFTRFDTAIRGLSEKQKQHSLLPLLHAFEQPSAAENHGVVPAKRFQHAVQAAGIGPVGQDGTTDIPHLSRRLIVKYAKDLEQLGLL
modifications: N-terminal His tag; Mycobacterium massiliense
notes: Mycobacterium massiliense carboxylate reductase, N-terminal HIS tagged
With B2 the “acceptance of 5-hydroxypentanoate as substrate (consumption of NADPH, absorbance at 340 nm)” value [2] was “accepted 5-hydroxypentanoate as substrate”.

B3: SEQ ID NO: 7: Segniliparus rotundus carboxylate reductase, N-terminal HIS tagged (protein, listed as Segniliparus rotundus)
chain: MTQSHTQGPQASAAHSRLARRAAELLATDPQAAATLPDPEVVRQATRPGLRLAERVDAILSGYADRPALGQRSFQTVKDPITGRSSVELLPTFDTITYRELRERATAIASDLAHHPQAPAKPGDFLASIGFISVDYVAIDIAGVFAGLTAVPLQTGATLATLTAITAETAPTLFAASIEHLPTAVDAVLATPSVRRLLVFDYRAGSDEDREAVEAAKRKIADAGSSVLVDVLDEVIARGKSAPKAPLPPATDAGDDSLSLLIYTSGSTGTPKGAMYPERNVAHFWGGVWAAAFDEDAAPPVPAINITFLPLSHVASRLSLMPTLARGGLMHFVAKSDLSTLFEDLKLARPTNLFLVPRVVEMLYQHYQSELDRRGVQDGTREAEAVKDDLRTGLLGGRILTAGFGSAPLSAELAGFIESLLQIHLVDGYGSTEAGPVWRDGYLVKPPVTDYKLIDVPELGYFSTDSPHPRGELAIKTQTILPGYYKRPETTAEVFDEDGFYLTGDVVAQIGPEQFAYVDRRKNVLKLSQGEFVTLAKLEAAYSSSPLVRQLFVYGSSERSYLLAVIVPTPDALKKFGVGEAAKAALGESLQKIARDEGLQSYEVPRDFIIETDPFTVENGLLSDARKSLRPKLKEHYGERLEAMYKELADGQANELRDIRRGVQQRPTLETVRRAAAAMLGASAAEIKPDAHFTDLGGDSLSALTFSNFLHDLFEVDVPVGVIVSAANTLGSVAEHIDAQLAGGRARPTFATVHGKGSTTIKASDLTLDKFIDEQTLEAAKHLPKPADPPRTVLLTGANGWLGRFLALEWLERLAPAGGKLITIVRGKDAAQAKARLDAAYESGDPKLAGHYQDLAATTLEVLAGDFSEPRLGLDEATWNRLADEVDFISHPGALVNHVLPYNQLFGPNVAGVAEIIKLAITTRIKPVTYLSTVAVAAGVEPSALDEDGDIRTVSAERSVDEGYANGYGNSKWGGEVLLREAHDRTGLPVRVFRSDMILAHQKYTGQVNATDQFTRLVQSLLATGLAPKSFYELDAQGNRQRAHYDGIPVDFTAESITTLGGDGLEGYRSYNVFNPHRDGVGLDEFVDWLIEAGHPITRIDDYDQWLSRFETSLRGLPESKRQASVLPLLHAFARPGPAVDGSPFRNTVFRTDVQKAKIGAEHDIPHLGKALVLKYADDIKQLGLL
modifications: N-terminal His tag
notes: Segniliparus rotundus carboxylate reductase, N-terminal HIS tagged
For B3, the “acceptance of 5-hydroxypentanoate as substrate (consumption of NADPH, absorbance at 340 nm)” value [2] was “accepted 5-hydroxypentanoate as substrate”.

B4: SEQ ID NO: 12: Escherichia coli ω-transaminase, N-terminal HIS tagged, cell free extract (protein, listed as Escherichia coli)
chain: MNRLPSSASALACSAHALNLIEKRTLDHEEMKALNREVIEYFKEHVNPGFLEYRKSVTAGGDYGAVEWQAGSLNTLVDTQGQEFIDCLGGFGIFNVGHRNPVVVSAVQNQLAKQPLHSQELLDPLRAMLAKTLAALTPGKLKYSFFCNSGTESVEAALKLAKAYQSPRGKFTFIATSGAFHGKSLGALSATAKSTFRKPFMPLLPGFRHVPFGNIEAMRTALNECKKTGDDVAAVILEPIQGEGGVILPPPGYLTAVRKLCDEFGALMILDEVQTGMGRTGKMFACEHENVQPDILCLAKALGGGVMPIGATIATEEVFSVLFDNPFLHTTTFGGNPLACAAALATINVLLEQNLPAQAEQKGDMLLDGFRQLAREYPDLVQEARGKGMLMAIEFVDNEIGYNFASEMFRQRVLVAGTLNNAKTIRIEPPLTLTIEQCELVIKAARKALAAMRVSVEEA
modifications: N-terminal His tag
notes: Escherichia coli ω-transaminase, N-terminal HIS tagged, cell free extract
In the case of B4, the “acceptance of cadaverine as substrate (formation of L-alanine from pyruvate, RP-HPLC)” value ([3]; 10 mM cadaverine, 10 mM pyruvate, pH 7.5, 25° C., 4 hours, against the empty vector control, FIG. 11) is reported as “accepted cadaverine as substrate” and the “acceptance of 5-aminopentanal as substrate forming cadaverine, concluded from reversibility of the ω-transaminase activity” value ([3]; conclusion given reversibility (Example 1)) is reported as “accept 5-aminopentanal as substrate and form cadaverine”.

Source: patent US20150361464A1, “METHODS, REAGENTS AND CELLS FOR BIOSYNTHESIZING COMPOUNDS” (INVISTA North America S.á r.l., priority 2014, published 2015)
